Test results published in patent US20240043540A1 (Innovent, published 2024).

Assays:
[1] = molecular target: T1, cynomolgus monkey B7H3 expressed on CHO cells (CHO-cynoB7H3) (cynomolgus monkey, UniProt Q7TPB4 26-316 (rat entry)); test: flow cytometry, hybridoma supernatant on CHO-cynoB7H3 cells
T1 chain: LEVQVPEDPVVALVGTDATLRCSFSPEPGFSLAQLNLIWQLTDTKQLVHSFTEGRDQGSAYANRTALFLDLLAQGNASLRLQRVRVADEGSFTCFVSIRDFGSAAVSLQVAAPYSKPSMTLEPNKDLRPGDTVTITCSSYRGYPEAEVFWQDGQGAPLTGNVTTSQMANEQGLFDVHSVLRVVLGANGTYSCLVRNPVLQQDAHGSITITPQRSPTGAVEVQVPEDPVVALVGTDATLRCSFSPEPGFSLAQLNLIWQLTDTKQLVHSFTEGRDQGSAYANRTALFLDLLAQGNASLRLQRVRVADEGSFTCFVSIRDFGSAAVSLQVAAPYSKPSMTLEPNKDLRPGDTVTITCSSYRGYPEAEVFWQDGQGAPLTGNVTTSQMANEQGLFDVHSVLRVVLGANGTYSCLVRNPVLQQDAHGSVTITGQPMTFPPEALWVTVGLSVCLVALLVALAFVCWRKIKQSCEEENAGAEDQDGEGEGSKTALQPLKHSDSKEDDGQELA

[2] = molecular target: T2, recombinant cynomolgus monkey B7H3 protein (cynomolgus monkey, UniProt Q7TPB4 26-248 (rat entry)); test: bio-layer interferometry (ForteBio), hybridoma antibody
T2 construct: also called SINO BIOLOGICAL Catalog No. 90806-C02H-50
T2 chain: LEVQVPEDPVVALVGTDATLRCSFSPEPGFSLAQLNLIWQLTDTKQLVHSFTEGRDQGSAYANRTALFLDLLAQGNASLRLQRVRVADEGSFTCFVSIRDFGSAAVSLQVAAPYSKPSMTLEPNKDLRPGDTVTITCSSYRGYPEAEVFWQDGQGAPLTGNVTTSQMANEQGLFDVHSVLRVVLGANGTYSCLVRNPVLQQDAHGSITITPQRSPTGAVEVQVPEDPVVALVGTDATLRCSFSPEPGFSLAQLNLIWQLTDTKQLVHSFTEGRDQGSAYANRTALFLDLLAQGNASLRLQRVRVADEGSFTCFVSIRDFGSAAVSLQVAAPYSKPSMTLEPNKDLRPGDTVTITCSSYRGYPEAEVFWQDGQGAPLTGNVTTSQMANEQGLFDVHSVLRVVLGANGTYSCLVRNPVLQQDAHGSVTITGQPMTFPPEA

[3] = molecular target: T3, recombinant human 4Ig-B7H3 protein (human, UniProt Q5ZPR3 29-461); test: as above
T3 construct: also called human B7H3 protein; SINO BIOLOGICAL Catalog No. 11188-H08H
T3 sequence: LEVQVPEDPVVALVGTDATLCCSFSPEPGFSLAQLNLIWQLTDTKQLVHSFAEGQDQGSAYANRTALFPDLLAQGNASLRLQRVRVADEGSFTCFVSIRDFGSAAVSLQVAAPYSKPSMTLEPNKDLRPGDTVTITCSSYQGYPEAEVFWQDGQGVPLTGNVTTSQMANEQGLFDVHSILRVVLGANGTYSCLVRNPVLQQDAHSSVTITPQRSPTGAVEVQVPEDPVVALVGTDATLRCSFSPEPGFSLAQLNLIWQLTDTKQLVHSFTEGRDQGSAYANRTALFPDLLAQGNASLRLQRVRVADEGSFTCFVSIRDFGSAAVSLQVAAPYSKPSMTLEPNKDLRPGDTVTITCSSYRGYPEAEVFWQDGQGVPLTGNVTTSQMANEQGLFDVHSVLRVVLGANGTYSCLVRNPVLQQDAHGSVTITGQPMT

B1: 20G5 (hybridoma clone antibody) (antibody, V domains shown)
VH: EVQLQQSVPELVKPGASVKISCKTSGYTFTEYIMHWVKQSHGKNLEWIGGINPNNGGTTYNQKFKDKATLTVDKSSSTAYMELHNLTSEDSAVYYCTRRTPPWHFAVWGAGTSLTVSS
VL: DIVLTQSPTIMSASPGEKVTMTCSASSSVSYIHWYQQKSGTSPKRWIFDTSRLASGVPARFSGSGSGTSYSLTISSMEAEDAATYYCQQWSSAPLTFGTGTTLELK
Q: Does B1 bind [1]?
A: Result: binds

Q: And the Kd [2]?
A: Its Kd is 590 pM.

Q: And the Kd [3]?
A: The Kd was 362 pM.
